The source of these data is doi:10.1101/2023.05.25.542299, “A Conserved Core Region of the Scaffold NEMO is Essential for Signal-induced Conformational Change and Liquid-liquid Phase Separation” (bioRxiv, 2023).

Series [1] has as its target FITC-labeled 45-mer peptide derived from the C-terminal region of IKKβ (FITC label (position not given)). The series is described as follows: fluorescence polarisation; fluorescence anisotropy binding assay with the FITC-labeled IKKβ 45-mer peptide and NEMO proteins; conditions not told (refs 13, 23). To be noted: both partners purified.
The target in series [2] is 45-mer peptide of IKKβ (as used in the CD experiments). The series is described as follows: circular dichroism (spectra and thermal denaturation with and without ligand); 10 µM NEMO protein with or without equimolar IKKβ 45-mer peptide, incubated 1 h at room temperature; 20 mM sodium phosphate, 500 mM NaCl, pH 7.4; spectra at 25 °C, melt 10 to 70 °C at 222 nm. To be noted: both partners purified. For orientation: Circular dichroism is the unequal absorption of left and right circularly polarised light.

B1: 7XAla-NEMO (aa 1–419), bacterially expressed (natural protein)
chain: MNRHLWKSQLAEMVQPSGGPAADQDVLGEESPLGKPAMLHLPSEQGAPETLQRALEENQELRDAIRQSNQILRERAEELLHFQASQREEKEFLMAKFQEARKLVERLGLEKLDLKRQKEQALREVEHLKRAQQQMAEDKASVKAQVTSLLGELQESQSRLEAATKEAQALEGRARAASEQARQLESEREALQQQHSVQVDQLRMQGQSVEAALRMERQAASEEKRKLAQLQVAYHQLFQEYDNHIKSSVVGSERKRGMQLEDLKQQLQQAEEALVAKQEVIDKLKEEAEQHKIVMETVPVLKAQADIYKADFQAERQAREKLAEKKELLQEQLEQLQREYSKLKASAQESARIEDMRKRHVEVSQAPLPPAPAYLSSPLALPSQRRSPPEEPPDFCCPKCQYQAPDMDTLQIHVMECIE
The Kd is the concentration at which binding is half-saturated. High values mean lower affinity, low ones higher affinity. In series [1], B1 gave a dissociation constant (Kd) of 13 ± 2.9 nM. In series [2], the “increase in Tm with equimolar peptide” value amounted to 3 °C.
